From article PMC11548252
Where two headings read alike, the source gives them in different places.

Key:
[1] = target: SARS-CoV-2 Spike protein (SARS-CoV-2) (UniProt P0DTC2); assay: fluorescence dequenching (Cy5/BHQ2)
[2] = target: SARS-CoV-2 Spike protein (SARS-CoV-2) (UniProt P0DTC2); assay: fluorescence dequenching (Cy5/BHQ2); remark: listed apart in the source
[3] = target: SARS-CoV-2 Spike protein (SARS-CoV-2) (UniProt P0DTC2); assay: ligand-responsive LAMP, colorimetric (indirect); conditions: 5'-phosphate

Sequence | binding (% fluorescence increase) [1] | binding (% fluorescence increase) [2] | binding (% increase of Abs430/Abs560) [3]
CAGCACCGACCTTGTGCTTTGGGAGTGCTGGTCCAAGGGCGTTAATGGAC [EY615QF] | 46 | 31 | 
CAGCACCGACCTTGTGCTTTGGGAGTGCTGGTCCAAGGGCGTTAATGGAC [EY615] |  |  | 81
